Laboratory results as given in the nanobody polyreactivity screen of Harvey et al. (2022).

Test: yeast display, Sf9 membrane polyspecificity reagent, FACS + sequencing; frameworks hold sequencing errors
In short: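 Using colony PCR, genes from sorted yeast display clones were amplified, then sequenced on MiSeq at 2 × 250 and filtered by CDR length. The clones had been stained with 10% biotinylated, detergent-solubilized Sf9 membrane reagent for 1 hour at 4 °C and sorted by FACS into low and high (top ~1%) gates on anti-HA and streptavidin fluorescence. Polyreactivity labels come from the gate of origin.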

| Sequence | polyreactivity (PSR sort gate) |
| --- | --- |
| QVQHVESGGGLVQAGRSLRLTSAASGIIFSGYAIGWYRQAPGKERHLVAAISSRCGGTYYADSVKGRFTISRDNAKNTVYFPLNSLKPEDTALYYCAAKRPACIQYSYYYWGQGTQVTVSS | high polyreactivity |
| QVQHVESGGGLVQAGVSLRLSCAASGFTFHRNAMGWSTQAPGKERELLAAITMKGGSSTYYADSVKGRFTISRDNAKNTVYLQMNSLKPEDTAVYYCARDSYSYTFSKNSDPAEYDYWGQGTQVTLSS | low polyreactivity |
| QVQHVESGGGLVQAGVSLRLSCAASGSTITYNAMGWYRQAPGKERELVAAITVSDGSTYYADSVKGRFTISRDNAKNTVYLQMNSLKPEDTAVYYCNAYAVYLRYLWYDYWGQGTQVTVSS | low polyreactivity |
| QVQHVESGGGLVQARGSLRLSCAASGFTFLAYAMGWYRQAPGKERELVAAINSSDCTTHYADSVKGRFTISRDYAKNTVYLQMNSLKPVDTAVYYCNTDWAYLSDYWGQGTQVTVSS | low polyreactivity |
| QVQHVESGGGLVQARGSLRLSCAASGSIFDLNAMGRYRQAPGKERELVAAISSGGGTYYADSVKGRFTISRDNSKNTVYLQMNSLKPVDTAVYYCKRVTRWTYNYWGQGTQVTVSS | high polyreactivity |
| QVQHVESGGGLVQARGSLRLTCAASGLILSSNAMGWYRQAPGKERELVAAITWDGDRTYADSVKGRFTISRDNAKNTVYLQRNSLKPEDTAVYYCAADKQYYWYDWSYDYWGQGTQVTVSS | low polyreactivity |
| QVQHVESGGGLVQEGGRLRLSCAASGITFGANTMGWSRQAPGKERELVAAITISGGITHYADSVKGRFTISRDNAKNTVYLQMNSLKPEDTAVYYCAAGAYWRLYPYRLRNVGRMYYWGQGTQVTVSS | low polyreactivity |
| QVQHVESGGGVVQAGGSLRLSCAASVRTFRYYDMGWYRQAPGTERELVAAITSRGGSSYYADSVKGRFTISRDNAKYTVYLQMNSLKPEDTAVYYCNAYPVQIFYLGNRQYNYWGQGTQVTVSS | high polyreactivity |
| QVQHVESGGRLVQAGGSLRLSCAASGSIFAAYAMGWYRQAPGKERELVAAISRSGASTYYADSVKGRFTISRDNAKNTVYLQMNSLKPVDTAVYYCAADTYAYPHDNYDYWGQGTQVTVSS | low polyreactivity |
| QVQHVESGGRLVQAVGSLRLSCAASGFTFTRHAMGWYRQAPGKERDLVSRISSRGGSTYYADSVKGRFTISRDNAKNTVYLQMNSLKPEDTAVFYCAAPVRKSSYTRYDSWGQGTQVTVSS | high polyreactivity |
| QVQHVESGGVIVQAGGSHRLSCAASGHIFFYYTMGWYRQAPGKERELVAGITIGGSTNYADSVKGRFTISRDTAKNTVYLQMNSLKPEDTAVYYCNVVKYVYIYSYWEYYYWGQGTQVTVSS | low polyreactivity |
| QVQHVESGRGLVQAGGSLRLSCASSGFTFRRNAMGWYRQAPGKVRELVAVITSSARTNYADSVKGRFTISRDNAKNTVYLQMKSLKPEDTAVYYCNAYGYRQSSSDKYGYWGQCTQVTVSS | high polyreactivity |
| QVQHVESRGGLVQAGGSLRLSCAASGFILYLNAMGWYRQAPGKERELVAAITSDGGSTYYADSVKGRFTISRDNAKNTVYLQMNSLKPEDTAVYYCAADNYPDEYDYWGQGTQVTVSS | low polyreactivity |
| QVQHVESRGGLVQAGGSLRLSCAASGIILSPYAMGWYRQAPGKERELVAAISRSGGSTYYADSVKGRFTISRDNAKNTVYLQMNSLKPEDTAVYYCAARYHVYSNYYKYDYCGQGTQVTVSS | high polyreactivity |
| QVQHVESRGGLVQAGGSLRLSCAASGLIFALYAMGWYRLAHGKERELVAAIDWSGGSTYYADSVKGRFTISRDNAKNTVYLQMNCLKPEDTAVYYCAADISSSPGNDYWGQGTQVTVSS | high polyreactivity |
| QVQHVESVGGLLQAGGSLPLSCASSGSTFTGYAMGRYREAPGIVRELVAAISSSGGRTYYADSVKGRFTISRDNAKNTVYLQMNSLKPEDTAVYYCAVRPRYRPSGYVEYDSWGQSTQVTVSS | high polyreactivity |
| QVQHVESVGGLVQAGGSLRLICAASGGTIDTYAIGWYRQAPGKERELVAGIDWSGGSTYYADSVKGRFTISRDNSKNTVYLQMNSLKPEDTAVYYCAADYYYPSQMDYWGQGTQVTVSS | low polyreactivity |
| QVQHVESVGGLVQAGGSLRLSCAASGITFNYNAMGWYRQAPGKERELVAAIRGSDSTTYYADSVKGRFTISRDNAKNTVYLQMNSLKPEDTAVYYCAAVGVVPRKKSARVYYWGQGTQVTVSS | low polyreactivity |
| QVQHVESVGGLVQAGGSLRLSCAASGRTFTSYDMGWYRQAPLTEREVVAAITGSYTYYADSVKGRFTISRDNAKNTVYLQFNSLKPEDTAVYYCAADEDDVVSGFLRYFYVSYYYWGQGTQVTVSS | low polyreactivity |
| QVQHVESVGGLVQAGGSLRLSCAASGYIFIRYPMGCYRQANGKERELDAAITWSDGTTYYADSVKGRFTISRDNAKNTVYLQMNSLKPEDTAVYYCAADRKVESVSRYDYWGQGTQVTVSS | low polyreactivity |

| Sequence | polyreactivity (PSR sort gate) |
| --- | --- |
| QVQHVETGGGLVQAGGSLRLSCAASGFIFTRYVMGWSRQAPGKERELVAAISRIGASTYYADSVKGRFSISRDNAKNPVYLQMNSLKPEDTAVYYCNVVSGGYFEYEYCGQGTQVTVSS | high polyreactivity |
| QVQHVETGGGLVQAGGSLRLSCAASGFLFYFNDKGWYRQAPGKERELVASITSGASTNYADSVKGRFTISRDNAKNTVYLQMNSLKPEDTAVYYCAAAYFWLYPYVEYDYWGQGTQVTVSS | low polyreactivity |
| QVQHVETGGGLVQAGGSLRLSCDASGRIFYNYVMGWYRQAPGKERELVAAISFSSGNTYYADSVKGRFTISRDNAKNSVYLQMNSLTPEDTAVYYCNADIYTWFQIGGYQYDYWGQGTQVTVSS | low polyreactivity |
| QVQHVHSGGGLVQAGGSLRLTCAASGSTFVGNAMVRYRQATGKERELVATISNSGGRTYYADSVKGRFTISRDNPKNTVYLQMNSLKAEDTAVYFCAADHPAFVPVYSFDYWGQGTQVNVSS | low polyreactivity |
| QVQIEESGGGLDQAGGSLRLTCAASGFTIPSYTRGWYRQAPGKERELVAAISRSDGTTYYAYSVKGRFTISRDNAKNSVYLQLNSLKPEDTAVYYCNKAYKRYGYHYDYWGQGTQVTVSS | high polyreactivity |
| QVQIEESGGGLVQAGGSHRLSCAASGSTSYWYAMGWSRQAPRKERELVAAISSDDSTNYADSVKGRFTISRDNAKNTVYLQMNSLKPEDTAVYYFNREHYLIRYDYWGQGTQVTVSS | low polyreactivity |
| QVQIEESGGGLVQAGGSLRLSCAASGLIFYYYAMGWYRQAPRKERELVAVFTESGYSTYYADYVKGLFTISRDYAKNNDYLQMNRLKPEDTAVYYCAAHGRAYVGGVGDDYWGQGTQVTVSS | low polyreactivity |
| QVQIEESVGDLVQAGGSLRLICAASGRTFPVYDMGWYRQAPGKERELVAAISRRAVRTYYADSVKGRFTISRDIAKNTVYLQMNSLKPEDTAVYYCNAVLRKITYDYWGQGTQVTVSS | high polyreactivity |
| QVQIGESGGGLVQAGGSLRLSCAASGFIIGTNTMGWYRQAPGKERELVAAITSVGSTNYADSVKGRFTISRDNAKNTVYLQMNSLKPEDTAVYYCPATLYYQYGGDYWGQGTQVTVSS | low polyreactivity |
| QVQILESGVCLVQARGSLRLSCAASGRTFRSNAMGWYRQAPGKERDLVAAITSSGGRTYYADSVKGRFTISRDNAKNTVYLQMNILKPEDTAVYYCNAVLRQYYRAYDYWGQGTQGTVSS | high polyreactivity |
| QVQIVDSGGGLVQAGGSLRISCAASGYISRVYAMGWYRQAPRKERELVAAITRSTTYYADSVKGRFTISRDNAKNTVYLQMNSLKPEDSAVYYCNAVWASPGQVRMYYWGQGTQVNVSS | high polyreactivity |
| QVQIVESAAGIVQAGGSLRLSCAASGSIFLLYAIGWYRQAPGKEMEFVAAITRGGGSTYYADSVKGRFTISRDNEKNIDYLQINSLIPEDTAVYYWYKGFQYHNGSLVVAYDYWGQGTQVTVSS | low polyreactivity |
| QVQIVESAGGLVQAGGSLSLSCAASGITYVFYALGWYRQEPGKERELVSDMSWSGGITYYADSVMGRFTISRDNAKNTVYLQMNSLKPEDPAVYYCAATKRQTKYYGGTTDSIMYYWGQGTQVTVSS | low polyreactivity |
| QVQIVESCGALVQAGRSLSLSCAASGSTFWDNVMGSYRQAPGKERELVAASTSGGSTNYADSVKGRFTISRDNAMNTDYLQLNSLIPEDTAVYYCAAGWYLYVLPYRYYYWRQGTQVTVSS | low polyreactivity |
| QVQIVESGGALVQAGGSLSLSCAASRSTFYRNDMGWYRQAPGKEREFVAAISFRGGGTYADSVKGRFTISRDNAKITVYLQMNSLKPEDTAVYYCAADHLSYRRRYEYWGQGTQVTVSS | low polyreactivity |
| QVQIVESGGGIVQAGGSLRLSCGASGRTFYYYAMGWYRQAPGKERELVASITWSGSSTTYADSVKGRFTISRDNSKNTFVLQLNRLKQQASAVYYCAADPYFWGYHFRRYGSWGQGTQVTVSS | low polyreactivity |
| QVQIVESGGGLDQAGGSLRLSCAASGSTFVLNPMGWYRQAPGKERGMVAAISSGGRTYYADSVKGRFTISRDNAKNTVYLQMNSLKPEDTAVYYCAANPYRGGHGTLFGYWGQGSQVTVSS | high polyreactivity |
| QVQIVESGGGLFQAGGSLRLSCAASGLIFYSYAMGWYRQAPWKERELVAAISSGGGSTYYADSVKGRFTISRDNAKNTVYLQLNSLKPEDTAVYYCNRLYKYRTPDYDHWGQGTQVTVSS | high polyreactivity |
| QVQIVESGGGLVEAGGSLRLSCAASGRTFWYIAMGWYRQSPGKASELVAAISYTGSRTYYADSVKGRFTISRYNAKNTVYLQMNSLKPDDTAVYYCNALARRPDAYAHYGYWGQGTQVSVSS | high polyreactivity |
| QVQIVESGGGLVQAGGRLRLSFSASGIIFTGNAMGWYRQAPGKERELVAAITSGDTTNYADSVKGRFTISRDNAKNTVYLLMNSLKPEDTAVYYCAKELQVRQAGDYWGQGTQVTVSS | low polyreactivity |
